Consider 5 molecules from article PMC7954794, “Protein context shapes the specificity of SH3 domain-mediated interactions in vivo” (Nature Communications, 2021).

In experiment [1] the test system is Lsb3. Briefly: Deep mutational scanning of Abp1 SH3, Abp1-Lsb3 DHFR-PCA (DMS score). The format is cell-based, Saccharomyces cerevisiae. To be noted: Abp1-Lsb3 DHFR-PCA, MTX2; for LSB3_MTX2: frequencies normalized to the reference condition: single amino acid variants of Abp1 SH3. The method, then:
(§1) Single site mutation libraries were generated by a PCR-based saturation mutagenesis method[50] as described below. The mutagenesis was carried out on the pUC19 plasmid containing the SH3 domain sequence of ABP1 flanked by its homology arms subsequently used in the CRISPR mediated genomic re-integration. We used oligos containing degenerate nucleotides (NNN) to carry out the mutagenesis at each codon of the domain sequence. In the first step of the two-step PCR procedure (short PCR step), an amplicon was generated with an oligo containing the degenerate codon which is positioned within the domain sequence, and another oligo lying outside Abp1 sequence in the plasmid. Short PCR step was carried out with the following settings: 5 min at 95 °C, 35 cycles: 20 s at 98 °C, 15 s at 60 °C, 30 s at 72 °C, and a final extension of 1 min at 72 °C. The amplicon generated in this step was used as a mega primer in the second step (long PCR step) to amplify the whole plasmid. Long PCR step was carried out with the following settings: 5 min at 95 °C, 22 cycles: 20 s at 98 °C, 15 s at 68 °C, 3 min 30 s at 72 °C, and a final extension of 5 min at 72 °C. The long PCR product was digested for 2 h at 37 °C with DpnI. The digestion product was then transformed into E. coli MC1061 competent cells. In order to obtain most of the 64 possible codons, we recovered ~1000 colonies from each plate to retrieve the plasmid single mutant libraries. Saturation mutagenesis was carried out in a codon-position-wise manner. Mutants at each position were stored separately. Library quality control was assessed by amplifying the purified plasmid DNA preparations by PCR followed by Illumina sequencing as described below. The genomic insertion of the mutant libraries (one library per amino acid position) was performed by targeting the stuffer sequence in the ABP1 SH3-deleted strain as described in the strain construction section. ABP1 SH3-deleted yeast competent cells were co-transformed with pCAS containing the stuffer-specific gRNA and PCR amplified ABP1 SH3 single position mutated libraries from the pUC19 preparations. As for the library generation, ~1000 colonies from each plate were retrieved. Glycerol stocks of yeast cells were kept for each position (58 different stocks corresponding to the 58 amino acid positions of Abp1 SH3). The stocks were also validated by Illumina sequencing (see below).
(§2) Liquid DHFR-PCA experiments were performed following the generation of the ABP1 SH3 single position mutated yeast strains and were performed in biological independent duplicates. An overnight culture was started in YPD + NAT by adding the same number of cells from each yeast mutant strain (master pool). Then, the master pool and Hua2-DHFR F[3] or Lsb3-DHFR F[3] preys strains were mixed in YPD (2:1) for mating and incubated for 8 h at 30 °C. Diploid cells were selected the first time by transferring the mixture in a YPD + NAT + HPH (OD 0.5) culture for 16 h at 30 °C. The next day, the first diploid selection was transferred in SC complete pH 6.0 + NAT + HPH at 0.5 OD and the culture was grown for 24 h at 30 °C. The validation of the yeast mutant libraries was done the next day with a fraction of the diploid cells (first DHFR-PCA experiment time point without PCA selection, reference condition S2) by amplifying ABP1 SH3 genomic sequence followed by Illumina sequencing as described in the section below. Following the selection, diploid cells OD was read using a TECAN Infinite F200 Pro, and dilutions to 0.1 OD in PCA selection media without agar in a 50 mL tube was done. Tubes were incubated at 30 °C for 72 h (second-time point of the DHFR-PCA experiment, first PCA selection). A fraction of the cells (5U OD) was collected for Illumina sequencing. The cells from the first PCA step were grown for a second PCA selection step using the same procedures. […]

The test system of experiment [2] is Hua2. In words: Deep mutational scanning of Abp1 SH3, Abp1-Hua2 DHFR-PCA (DMS score). Type of experiment: cell-based, Saccharomyces cerevisiae. The settings on record: for hua2sc: Frequencies scaled to the synonymous mutation distribution (DMS score) / HUA2_MTX2: frequencies normalized to the reference condition: Abp1-Hua2 DHFR-PCA, MTX2; for HUA2_MTX2: frequencies normalized to the reference condition: single amino acid variants of Abp1 SH3; for quadrant (effect of mutation on Hua2 and Lsb3 interactions): classification from both Hua2 and Lsb3 DMS scores, Dest. both / Dest. Hua2 / Dest. Lsb3 / Neutral. Here is the method: as §1, §2

B1: ABP1 L48L (protein, UniProt P15891 2-592, looked up)
Actin-binding protein: ALEPIDYTTHSREIDAEYLKIVRGSDPDTTWLIISPNAKKEYEPESTGSSFHDFLQLFDETKVQYGLARVSPPGSDVEKIIIIGWCPDSAPLKTRASFAANFAAVANNLFKGYHVQVTARDEDDLDENELLMKISNAAGARYSIQTSSKQQGKASTPPVKKSFTPSKSPAPVSKKEPVKTPSPAPAAKISSRVNDNNDDDDWNEPELKERDFDQAPLKPNQSSYKPIGKIDLQKVIAEEKAKEDPRLVQKPTAAGSKIDPSSDIANLKNESKLKRDSEFNSFLGTTKPPSMTESSLKNDDDKVIKGFRNEKSPAQLWAERKAKQNSGNAETKAEAPKPEVPEDEPEGEPDVKDLKSKFEGLAASEKEEEEMENKFAPPPKKSEPTIISPKPFSKPQEPVKAEEAEQPKTDYKKIGNPLPGMHIEADNEEEPEENDDDWDDDEDEAAQPPLPSRNVASGAPVQKEEPEQEEIAPSLPSRNSIPAPKQEEAPEQAPEEEIEEEAEEAAPQLPSRSSAAPPPPPRRATPEKKPKENPWATAEYDYDAAEDNELTFVENDKIINIEFVDDDWWLGELEKDGSKGLFPSNYVSLGN
modifications: synonymous codon change L48L
In the case of B1, in experiment [1], the “lsb3sc: Frequencies scaled to the synonymous mutation distribution (DMS score)” value (“lsb3sc: Frequencies scaled” for short) is -0.4967 and the “LSB3_MTX2: frequencies normalized to the reference condition” value (“LSB3_MTX2: frequencies normalized” for short) is 1.0036. Besides, in experiment [2], the “hua2sc: Frequencies scaled to the synonymous mutation distribution (DMS score)” value (“hua2sc: Frequencies scaled” below) was -0.5549; the “HUA2_MTX2: frequencies normalized to the reference condition” value (“HUA2_MTX2: frequencies normalized” below) turned out to be 1.058; the “quadrant (effect of mutation on Hua2 and Lsb3 interactions)” value (shortened to “quadrant”) is on record as “Neutral”.

B2: ABP1 F49F (protein, UniProt P15891 2-592, looked up)
Actin-binding protein: ALEPIDYTTHSREIDAEYLKIVRGSDPDTTWLIISPNAKKEYEPESTGSSFHDFLQLFDETKVQYGLARVSPPGSDVEKIIIIGWCPDSAPLKTRASFAANFAAVANNLFKGYHVQVTARDEDDLDENELLMKISNAAGARYSIQTSSKQQGKASTPPVKKSFTPSKSPAPVSKKEPVKTPSPAPAAKISSRVNDNNDDDDWNEPELKERDFDQAPLKPNQSSYKPIGKIDLQKVIAEEKAKEDPRLVQKPTAAGSKIDPSSDIANLKNESKLKRDSEFNSFLGTTKPPSMTESSLKNDDDKVIKGFRNEKSPAQLWAERKAKQNSGNAETKAEAPKPEVPEDEPEGEPDVKDLKSKFEGLAASEKEEEEMENKFAPPPKKSEPTIISPKPFSKPQEPVKAEEAEQPKTDYKKIGNPLPGMHIEADNEEEPEENDDDWDDDEDEAAQPPLPSRNVASGAPVQKEEPEQEEIAPSLPSRNSIPAPKQEEAPEQAPEEEIEEEAEEAAPQLPSRSSAAPPPPPRRATPEKKPKENPWATAEYDYDAAEDNELTFVENDKIINIEFVDDDWWLGELEKDGSKGLFPSNYVSLGN
modifications: synonymous F49F
B2: in experiment [1], the “lsb3sc: Frequencies scaled” value is recorded as -0.3759 and the “LSB3_MTX2: frequencies normalized” value was found to be 1.124. In experiment [2], the “hua2sc: Frequencies scaled” value is recorded as 0.1177; the “HUA2_MTX2: frequencies normalized” value worked out at 1.73; the “quadrant” value is on record as “Neutral”.

B3: ABP1 Y53Y (protein, UniProt P15891 2-592, looked up)
Actin-binding protein: ALEPIDYTTHSREIDAEYLKIVRGSDPDTTWLIISPNAKKEYEPESTGSSFHDFLQLFDETKVQYGLARVSPPGSDVEKIIIIGWCPDSAPLKTRASFAANFAAVANNLFKGYHVQVTARDEDDLDENELLMKISNAAGARYSIQTSSKQQGKASTPPVKKSFTPSKSPAPVSKKEPVKTPSPAPAAKISSRVNDNNDDDDWNEPELKERDFDQAPLKPNQSSYKPIGKIDLQKVIAEEKAKEDPRLVQKPTAAGSKIDPSSDIANLKNESKLKRDSEFNSFLGTTKPPSMTESSLKNDDDKVIKGFRNEKSPAQLWAERKAKQNSGNAETKAEAPKPEVPEDEPEGEPDVKDLKSKFEGLAASEKEEEEMENKFAPPPKKSEPTIISPKPFSKPQEPVKAEEAEQPKTDYKKIGNPLPGMHIEADNEEEPEENDDDWDDDEDEAAQPPLPSRNVASGAPVQKEEPEQEEIAPSLPSRNSIPAPKQEEAPEQAPEEEIEEEAEEAAPQLPSRSSAAPPPPPRRATPEKKPKENPWATAEYDYDAAEDNELTFVENDKIINIEFVDDDWWLGELEKDGSKGLFPSNYVSLGN
modifications: synonymous codon change Y53Y
For B3, in experiment [1], the “lsb3sc: Frequencies scaled” value was -0.1658 and the “LSB3_MTX2: frequencies normalized” value is given as 1.335. Also, in experiment [2], the “hua2sc: Frequencies scaled” value is recorded as -0.26; the “HUA2_MTX2: frequencies normalized” value was found to be 1.353; the “quadrant” value is “Neutral”.

B4: ABP1 P50P (protein, UniProt P15891 2-592, looked up)
Actin-binding protein: ALEPIDYTTHSREIDAEYLKIVRGSDPDTTWLIISPNAKKEYEPESTGSSFHDFLQLFDETKVQYGLARVSPPGSDVEKIIIIGWCPDSAPLKTRASFAANFAAVANNLFKGYHVQVTARDEDDLDENELLMKISNAAGARYSIQTSSKQQGKASTPPVKKSFTPSKSPAPVSKKEPVKTPSPAPAAKISSRVNDNNDDDDWNEPELKERDFDQAPLKPNQSSYKPIGKIDLQKVIAEEKAKEDPRLVQKPTAAGSKIDPSSDIANLKNESKLKRDSEFNSFLGTTKPPSMTESSLKNDDDKVIKGFRNEKSPAQLWAERKAKQNSGNAETKAEAPKPEVPEDEPEGEPDVKDLKSKFEGLAASEKEEEEMENKFAPPPKKSEPTIISPKPFSKPQEPVKAEEAEQPKTDYKKIGNPLPGMHIEADNEEEPEENDDDWDDDEDEAAQPPLPSRNVASGAPVQKEEPEQEEIAPSLPSRNSIPAPKQEEAPEQAPEEEIEEEAEEAAPQLPSRSSAAPPPPPRRATPEKKPKENPWATAEYDYDAAEDNELTFVENDKIINIEFVDDDWWLGELEKDGSKGLFPSNYVSLGN
modifications: synonymous codon change P50P
In the case of B4, in experiment [1], the “lsb3sc: Frequencies scaled” value is listed as -0.6263 and the “LSB3_MTX2: frequencies normalized” value was 0.874. Moreover, in experiment [2], the “hua2sc: Frequencies scaled” value is on record as -0.6569; the “HUA2_MTX2: frequencies normalized” value was found to be 0.9559; the “quadrant” value is reported as “Neutral”.

B5: ABP1 S51S (protein, UniProt P15891 2-592, looked up)
Actin-binding protein: ALEPIDYTTHSREIDAEYLKIVRGSDPDTTWLIISPNAKKEYEPESTGSSFHDFLQLFDETKVQYGLARVSPPGSDVEKIIIIGWCPDSAPLKTRASFAANFAAVANNLFKGYHVQVTARDEDDLDENELLMKISNAAGARYSIQTSSKQQGKASTPPVKKSFTPSKSPAPVSKKEPVKTPSPAPAAKISSRVNDNNDDDDWNEPELKERDFDQAPLKPNQSSYKPIGKIDLQKVIAEEKAKEDPRLVQKPTAAGSKIDPSSDIANLKNESKLKRDSEFNSFLGTTKPPSMTESSLKNDDDKVIKGFRNEKSPAQLWAERKAKQNSGNAETKAEAPKPEVPEDEPEGEPDVKDLKSKFEGLAASEKEEEEMENKFAPPPKKSEPTIISPKPFSKPQEPVKAEEAEQPKTDYKKIGNPLPGMHIEADNEEEPEENDDDWDDDEDEAAQPPLPSRNVASGAPVQKEEPEQEEIAPSLPSRNSIPAPKQEEAPEQAPEEEIEEEAEEAAPQLPSRSSAAPPPPPRRATPEKKPKENPWATAEYDYDAAEDNELTFVENDKIINIEFVDDDWWLGELEKDGSKGLFPSNYVSLGN
modifications: synonymous codon S51S
Take B5: in experiment [1], the “lsb3sc: Frequencies scaled” value is 0.05209 and the “LSB3_MTX2: frequencies normalized” value was 1.552. For the same molecule, in experiment [2], the “hua2sc: Frequencies scaled” value is listed as -0.02064; the “HUA2_MTX2: frequencies normalized” value is reported as 1.592; the “quadrant” value is “Neutral”.
